Measured values published in publication doi:10.1101/2023.08.01.551478, “A feedback control mechanism governs the synthesis of lipid-linked precursors of the bacterial cell wall” (bioRxiv, 2023).

Molecular target: the molecule itself
Experiment: cryo-EM structure; YES complex of EcMraY(T23P), protein E and SlyD, obtained with the methodologies of ref. 31; focused refinement of MraY alone; processed with cryosparc v3.2.0

B1: E. coli MraY(T23P) (enzyme)
chain: MLVWLAEHLVKYYSGFNVFSYLPFRAIVSLLTALFISLWMGPRMIAHLQKLSFGQVVRNDGPESHFSKRGTPTMGGIMILTAIVISVLLWAYPSNPYVWCVLVVLVGYGVIGFVDDYRKVVRKDTKGLIARWKYFWMSVIALGVAFALYLAGKDTPATQLVVPFFKDVMPQLGLFYILLAYFVIVGTGNAVNLTDGLDGLAIMPTVFVAGGFALVAWATGNMNFASYLHIPYLRHAGELVIVCTAIVGAGLGFLWFNTYPAQVFMGDVGSLALGGALGIIAVLLRQEFLLVIMGGVFVVETLSVILQVGSFKLRGQRIFRMAPIHHHYELKGWPEPRVIVRFWIISLMLVLIGLATLKVR
notes: MraY (phospho-MurNAc-pentapeptide transferase) of Escherichia coli with the T23P substitution, as it stood in the YES complex for cryo-EM; also called EcMraY(T23P)
stoichiometry N: 2
